From the supplement of paper PMC11908140

B1: library; numbered along this chain (parent)
chain: MRKPRAAVGSGHRKQAASQEGRQKHAKNNSQAKPSACDGLARQPEEVVLQASVSSYHLFRDVAEVTAFRGSLLSWYDQEKRDLPWRRRAEDEMDLDRRAYAVWVSEVMLQQTQVATVINYYTGWMQKWPTLQDLASASLEEVNQLWAGLGYYSRGRRLQEGARKVVEELGGHMPRTAETLQQLLPGVGRYTAGAIASIAFGQATGVVDGNVARVLCRVRAIGADPSSTLVSQQLWGLAQQLVDPARPGDFNQAAMELGATVCTPQRPLCSQCPVESLCRARQRVEQEQLLASGSLSGSPDVEECAPNTGQCHLCLPPSEPWDQTLGVVNFPRKASRKPPREESSATCVLEQPGALGAQILLVQRPNSGLLAGLWEFPSVTWEPSEQLQRKALLQELQRWAGPLPATHLRHLGEVVHTFSHIKLTYQVYGLALEGQTPVTTVPPGARWLTQEEFHTAAVSTAMKKVFRVYQGQQPGTCMGSKRSQVSSPCSRKKPRMGQQVLDNFFRSHISTDAHSLNSAAQ

Variants of: B1
Assay: 8OG:A repair function score (normalized; synonymous = 0, nonsense = -1) (normalized log-likelihood score); higher = more repair activity (WT-like)
Conditions: with 8OG:A DNA repair reporter (GFP) in HEK-293 MUTYH KO cells
Procedure: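 Saturation mutagenesis (NNN codon scan) of the MUTYH cDNA (521-aa nuclear isoform NM_001048174.1 / NP_001041639), stably expressed under doxycycline induction in HEK-293 MUTYH knockout cells. Cells were co-transfected with an 8OG:A-bearing GFP repair reporter plus mCherry and sorted 72 h later into GFP+ and GFP− bins, three replicates per tile. The Rosace log2 enrichment (GFP+ vs GFP−) was converted per tile to a normalized function score with synonymous variants centered at 0 and nonsense variants (codons 1-471) at -1; low-abundance variants were removed.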

Variant	8OG:A repair function score
I509R	-0.0323
F250G	-0.867
R157Y	-0.068
K492R	-0.0207
R389I	0.462
K493I	-0.0174
L40F	0.134
Q426Y	0.0116
G161T	-0.317
T346Y	-0.168
Q426C	-0.0839
G297V	0.0126
L277W	-0.00135
S231T	0.0918
S459P	-0.197
L95G	0.00593
R495A	-0.0255
L501N	-0.0105
A280E	-0.713
S483K	-0.04
Q265Y	-0.00929
S515N	0.0152
L370N	-0.379
N251T	-0.798

Variant	8OG:A repair function score
K481I	0.000486
Q450K	0.354
L423W	-0.0181
A89T	-0.00868
L83C	-0.323
D94W	-1
S378C	0.0237
R266H	0.00581
A6F	0.0517
Q78T	-0.00936
L448H	-0.0456
P306A	-0.0211
G39L	0.0565
V415T	-0.106
V427E	-1.24
I359E	-0.818
V327A	-0.205
V102F	-0.714
T122F	-0.0723
Q286S	-0.023
Y100K	-1.96
P404D	-0.155
T440G	-0.145
A137T	-0.295

Variant	8OG:A repair function score
V328A	-0.0621
G293I	-0.0531
S55Y	0.000496
A101I	-0.0179
W146G	-0.399
N366G	-0.066
S384G	0.138
R87P	-0.0432
S231Y	-0.226
A259I	-0.953
E385V	-0.0807
N251D	-0.947
D208V	-0.996
D77A	-0.0463
Y120R	-0.0662
D512F	-0.0699
R389P	-0.583
W128Q	-0.844
E375H	-0.347
R283D	-0.662
A238L	-0.816
I195N	-1.12
C272K	-1.41
L411D	-0.751

Variant	8OG:A repair function score
T511Q	0.0207
Q323L	-0.0798
R332S	-0.0346
G170Q	0.0993
A36V	0.0896
S105N	-0.802
D61W	-0.127
E413M	-0.375
S510P	0.0141
Q499T	-0.00713
R332W	0.0485
H454E	-0.068
Q435R	0.0382
V438G	-0.176
L72Q	-1.44
V379H	-0.391
Q110S	-1.26
R175L	-0.252
T260M	-0.0209
H410F	0.096
Y121C	-1.17
S197D	-1.04
D243K	-0.914
E46I	0.0225

Variant	8OG:A repair function score
A345W	-0.174
E79F	0.000542
P488V	-0.00252
P437Y	-0.351
D249N	-0.673
Q144W	-0.282
G434F	0.125
T116F	-0.000589
A519H	-0.00545
V218S	-0.374
T260K	-0.0184
N503T	0.00666
C304I	-0.257
Q521M	0.0277
E106A	-0.944
L289V	-0.0422
G201C	-0.103
R88E	-0.00364
R467I	-0.0576
T130E	-0.171
A280V	-0.0812
H312I	0.0886
V218W	-0.74
P306I	-0.0314

Variant	8OG:A repair function score
Q310V	-0.0252
V206F	-0.894
H312L	0.0443
P352D	-0.0437
E375W	-0.45
V230R	-0.524
D96L	-0.43
K164I	0.0586
P34D	0.128
L145C	0.112
P264L	-0.0962
G201W	-0.353
L313I	-0.156
E140K	-0.15
G201L	-0.298
V415R	0.157
D133C	-0.201
S343T	-0.0419
L49D	0.0266
H312E	0.0205
A67K	-0.0225
A280T	-0.13
T346G	-0.335
A177F	-0.273

Variant	8OG:A repair function score
T179P	-0.236
E350Q	-0.13
P129G	-0.263
Y76C	-1.48
G123K	0.00116
L58D	-0.00786
L109I	-1.04
R409H	-0.288
Q470E	-0.000322
L355V	-0.0573
R332V	-0.216
A461C	-0.0899
A51R	0.00957
S270V	-0.0277
L215C	-0.768
K481G	-0.0136
W321G	-0.258
V468N	-0.262
Q310A	-0.00829
S335A	0.0331
Y76Q	-1.53
C262S	-1.38
T204F	-0.0751
I198C	-0.474

Variant	8OG:A repair function score
G475D	-0.00652
G148Y	-0.677
K337S	-0.109
L215T	-0.86
I509F	-0.0535
P442D	-0.0873
V107C	-0.0803
R69E	-3.19
L257W	-0.968
E92F	-0.016
G258N	-1.2
L411F	-0.151
R213E	-1.03
G222P	-0.731
R175Q	0.0309
V328F	-0.215
R87I	-0.0226
S507N	-0.0395
Q252Y	-0.982
K333M	-0.0664
T122L	-0.0652
T130A	-0.214
S335P	-0.028
S367G	-0.159

Variant	8OG:A repair function score
G429W	-0.114
G293C	-0.0307
L169N	-0.172
A137V	-0.325
V165F	-0.802
A345L	-0.04
A305T	-0.034
E385R	-0.0734
K337F	-0.221
G434D	-0.275
T112P	-1.38
Q363R	0.0264
A445D	-1.09
R213G	-1.01
S318F	-0.00953
L361V	-0.0292
G412E	-0.631
L325R	-0.00254
S518V	-0.01
C477E	-0.0756
P267R	-1.04
R279M	-0.178
A199N	-0.885
Y428M	-0.656

Variant	8OG:A repair function score
S343P	-0.144
D512G	-0.00398
S136Y	0.0366
L109G	-0.659
R446Y	-0.414
P474G	-0.00334
L229M	-0.0886
L325S	-0.135
G150L	-1.18
G186C	-0.439
Y428R	-1.14
R506W	-0.0815
R213L	-1.01
T191W	-1.2
Q202T	-0.198
Q182Y	0.00409
T308K	-0.0882
E92S	-0.0176
K3I	-0.161
H312N	-0.0171
L325K	-0.0528
V114H	-0.935
A457H	-0.398
R219G	-0.758

Variant	8OG:A repair function score
T191H	-0.486
R154F	-1.05
A212K	-0.0378
T130D	0.137
L268V	-0.0404
P437H	0.0786
S459M	-0.693
V328Q	0.0461
D512M	-0.033
Y152L	-0.707
W447K	-0.937
E160R	-0.136
P317G	-0.0274
K463M	-0.0542
L109K	-0.951
S231E	0.0501
D249K	-0.584
S459W	-0.631
S487R	0.0273
E90Y	-0.107
H57P	-0.793
R163A	-0.182
F453H	-0.758
L72E	-1.21

Variant	8OG:A repair function score
G471F	-0.0055
P338K	0.0337
D249M	-0.419
V214S	-0.707
Q286H	-0.0639
P488E	-0.0239
V242W	-1.01
T417D	-0.0817
C477P	-0.00239
G309E	0.02
Q271S	-0.0229
C489V	-0.0255
P338L	-0.061
P488L	0.00539
L40W	0.123
S419A	-0.188
Q182W	-0.114
Q435M	0.051
Q232R	0.171
L184P	-1.21
V301K	-0.283
A334D	-0.242
L72F	-1.08
E375F	-0.673

Variant	8OG:A repair function score
I198N	-0.562
T179S	0.00681
E342M	0.0246
T449V	-0.286
L393A	-0.295
V468E	-0.259
A391Y	-0.00342
Q484V	-0.0109
A238M	0.0352
V104T	-0.472
S483V	0.0104
D208Q	-1.01
G161E	-0.898
L277F	0.00162
A192W	-1.16
L268I	-0.0493
C278T	-1.15
E287H	-0.047
K464D	-0.393
R266G	-0.111
T424H	-0.235
M478L	-0.0153
R69F	-1.53
Q159A	-0.0252

Variant	8OG:A repair function score
G412Q	-0.645
S270Y	-0.036
G297Y	-0.0582
A405N	-0.161
S74Q	0.00637
Y76N	-1.1
V458L	-0.294
P331M	-0.254
L290Y	-0.0918
L392E	-1.11
Q351I	-0.0185
V362P	-0.881
Q435K	0.0819
E303R	-0.0675
E160Y	-0.063
S480M	0.0231
T204P	-0.903
Q233K	-0.089
E45A	-0.024
W146R	-1.28
S419W	-0.75
Q110A	-2.51
